{
  "source": "paper PMC6992608",
  "about": "“A Single Step in vitro Bioassay Mimicking TLR4-LPS Pathway and the Role of MD2 and CD14 Coreceptors” (Frontiers in Immunology, 2020)",
  "binders": {"B1": {"name": "Recombinant human myeloid differentiation-2 (MD2) protein (natural protein, UniProt Q9Y6Y9 19-160, looked up)", "chain": "QKQYWVCNSSDASISYTYCDKMQYPISINVNPCIELKRSKGLLHIFYIPRRDLKQLYFNLYITVNTMNLPKRKEVICRGSDDDYSFCRALKGETVNTTISFSFKGIKFSKGKYKCVVEAISGSPEEMLFCLEFVILHQPNSN", "modifications": "Alexa Fluor 647, on average 3 tags per MD2 molecule", "notes": "myeloid differentiation-2 (MD2, lymphocyte antigen 96), human, recombinant; No catalogue number is printed; source: bought: Abcam"}},
  "biological_target": "T1, Human recombinant toll like receptor 4 (rTLR4) (human, UniProt O00206 24-631)",
  "T1 construct": "toll like receptor 4 (TLR4), human, recombinant; No catalogue number or construct limits are printed; a soluble recombinant TLR4 is most likely the extracellular domain (surmised); also called MP-rTLR4; source: bought: R & D Systems",
  "T1 sequence (O00206 24-631)": "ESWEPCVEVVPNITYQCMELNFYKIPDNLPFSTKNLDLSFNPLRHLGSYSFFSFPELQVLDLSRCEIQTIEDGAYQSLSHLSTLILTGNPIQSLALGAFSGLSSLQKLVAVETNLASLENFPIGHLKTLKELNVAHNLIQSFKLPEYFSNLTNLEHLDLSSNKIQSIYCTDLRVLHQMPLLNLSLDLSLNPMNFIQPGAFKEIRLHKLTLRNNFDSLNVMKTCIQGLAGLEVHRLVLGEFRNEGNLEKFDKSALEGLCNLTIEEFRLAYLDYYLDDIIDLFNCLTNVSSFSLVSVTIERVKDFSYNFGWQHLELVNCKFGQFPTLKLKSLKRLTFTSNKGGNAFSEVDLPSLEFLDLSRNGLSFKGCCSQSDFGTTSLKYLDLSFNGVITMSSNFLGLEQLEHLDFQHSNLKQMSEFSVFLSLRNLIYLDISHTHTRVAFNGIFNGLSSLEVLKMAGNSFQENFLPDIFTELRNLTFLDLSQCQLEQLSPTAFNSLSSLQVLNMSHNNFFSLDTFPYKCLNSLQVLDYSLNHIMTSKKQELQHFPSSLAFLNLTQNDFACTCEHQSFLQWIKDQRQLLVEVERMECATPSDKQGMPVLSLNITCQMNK",
  "test": "pull-down; rTLR4 held by its His tag on Ni-NTA magnetic beads; MD2 (Alexa Fluor 647), CD14 and LPS-Alexa Fluor 488 co-incubated in one tube in PBS pH 7.4 with 0.5% Tween 20 at RT; beads removed by magnet at 15, 30, 45, 60 and 90 min; unbound MD2 in the supernatant quantified by fluorescence, CD14 by silver staining",
  "settings": "both partners purified",
  "data": [
    {"binder": "B1", "values": [
      {"measurement": "stoichiometry N", "result": 1}
    ]}
  ]
}
